Reference: publication PMC9765439, “Systems-Wide Dissection of Organic Acid Assimilation in Pseudomonas aeruginosa Reveals a Novel Path To Underground Metabolism” (mBio, 2022)

B1: 2-methylcitrate synthase PrpC from Pseudomonas aeruginosa (enzyme)
chain: MAEAKVLSGAGLRGQVAGQTALSTVGQEGAGLTYRGYDVRDLAAAAIFEEVAYLLLYGELPNKQQLDAYLKKLQGQRDLPQALKEVLERIPKDAHPMDVMRTGASVLGTLEPELSFDQQRDVADRLLAAFPAIMTYWYRFTHEGQRIDCNSDEPTIGGHFLALLHGKKPSELHVKVMNVSLILYAEHEFNASTFTARVCASTLSDLYSCVTGAIGSLRGPLHGGANEAAMELIERFSSPQEATAELLKMLERKDKIMGFGHAIYKDSDPRNEVIKGWSKQLADEVGDKVLFAVSEAIDKTMWEQKKLFPNADFYHASAYHFMGIPTKLFTPIFVCSRTSGWTAHVFEQRANNRIIRPSAEYTGVEQRAFVPLEQR
notes: 2-methylcitrate synthase PrpC of Pseudomonas aeruginosa; PCR-amplified ORF of prpC cloned into pET-19m; printed length 376 amino acids, theoretical monomer mass 41.7 kDa; also called PrpCPa; 2-MCS; source: E. coli, purified (Ni-NTA, His6 tag cleaved with TEV protease); not shown: His6, N-terminal, cleaved
B2: citrate synthase GltA from Pseudomonas aeruginosa (enzyme, UniProt P14165 1-428, looked up)
chain: MADKKAQLIIEGSAPVELPVLSGTMGPDVVDVRGLTATGHFTFDPGFMSTASCESKITYIDGDKGVLLHRGYPIEQLAEKSDYLETCYLLLNGELPTAAQKEQFVGTIKNHTMVHEQLKTFFNGFRRDAHPMAVMCGVIGALSAFYHDSLDINNPKHREVSAHRLIAKMPTIAAMVYKYSKGEPMMYPRNDLNYAENFLHMMFNTPCETKPISPVLAKAMDRIFILHADHEQNASTSTVRLAGSSGANPFACIASGIAALWGPAHGGANEAVLRMLDEIGDVSNIDKFVEKAKDKNDPFKLMGFGHRVYKNFDPRAKVMKQTCDEVLQELGINDPQLELAMKLEEIARHDPYFVERNLYPNVDFYSGIILKAIGIPTSMFTVIFALARTVGWISHWQEMLSGPYKIGRPRQLYTGHTQRDFTALKDRG
notes: citrate synthase GltA of Pseudomonas aeruginosa; PCR-amplified ORF of gltA cloned into pET-19m; printed length 429 amino acids; The hexamer is that of the crystal's asymmetric unit; also called GltAPa; citrate (CIT) synthase; source: E. coli, purified (Ni-NTA, His6 tag cleaved with TEV protease); not shown: His6, N-terminal, cleaved

Key:
[1] = biological target: the molecule itself; assay: crystal structure; PrpC apo and oxaloacetate-bound (2.5 mM oxaloacetate) crystals; sitting drop, 100 to 200 mM Bis-Tris pH 5.5, 20 to 30% PEG 3350, 0.1% D-xylose, 19°C
[2] = biological target: the molecule itself; assay: crystal structure; GltA apo, 20 to 25 mg/mL, sitting drop vapor diffusion, 19°C

Row | Protein | stoichiometry N [1] | stoichiometry N [2]
1 | B1 | 2 | 
2 | B2 |  | 6
